Assay results published in EP4674868A1 (Jiangsu Hengrui Pharmaceuticals Co., Ltd., dated 2026).
Read-outs that look alike come from different tables or passages of the source.

Experiments:
[1] = target: T1, human CD40 on the surface of HEK293 cells (HEK293-HuCD40) (human, UniProt P25942 21-277); assay: cell-based or functional assay
[2] = target: T2, human FAP on the surface of CHO-K1 cells (CHO-K1-HuFAP) (human, UniProt Q12884 1-760); assay: FACS, CHO-K1-HuFAP cells
T2 construct: whole, on cells; also called CHO cell line overexpressing human FAP; FAP on the surface of CHO-K1-HuFAP cells

[3] = target: T3, human 4-1BB on the surface of HEK293 cells (HEK293-Hu4-1BB) (human, UniProt Q07011 24-255); assay: cell-based or functional assay
[4] = target: T2, human FAP on the surface of CHO-K1 …; assay: FACS, CHO-K1-HuFAP cells; remark: listed apart in the source
[5] = target: T1, human CD40 on the surface of HEK293 …; assay: cell-based or functional assay; remark: listed apart in the source
[6] = target: T3, human 4-1BB on the surface of HEK293 …; assay: FACS, HEK293-Hu4-1BB cells
[7] = target: T1, human CD40 on the surface of HEK293 …; assay: FACS, HEK293-HuCD40 cells
[8] = target: T3, human 4-1BB on the surface of HEK293 …; assay: cell-based or functional assay; remark: listed apart in the source
[9] = target: T1, human CD40 on the surface of HEK293 …; assay: FACS, HEK293-HuCD40 cells; remark: listed apart in the source
[10] = target: T3, human 4-1BB on the surface of HEK293 …; assay: FACS, HEK293-Hu4-1BB cells; remark: listed apart in the source
[11] = target: T3, human 4-1BB on the surface of HEK293 …; assay: FACS, HEK293-Hu4-1BB cells; remark: listed apart in the source
[12] = target: T3, human 4-1BB on the surface of HEK293 …; assay: FACS, HEK293-Hu4-1BB cells; remark: listed apart in the source
[13] = target: T3, human 4-1BB on the surface of HEK293 …; assay: cell-based or functional assay; remark: listed apart in the source
[14] = target: T3, human 4-1BB on the surface of HEK293 …; assay: FACS, HEK293-Hu4-1BB cells; remark: listed apart in the source
[15] = target: T1, human CD40 on the surface of HEK293 …; assay: cell-based or functional assay; remark: listed apart in the source

Binder	CD40/NF-κB reporter (HEK-Blue CD40L), 4-1BB-crosslinked, Fold change in Emax [1] [fold]	CD40/NF-κB reporter (HEK-Blue CD40L), FAP-crosslinked, Fold change in Emax [1] [fold]	CD40/NF-κB reporter (HEK-Blue CD40L), uncrosslinked, Fold change in Emax [1] [fold]	Maximum fluorescence value [2]	4-1BB/NF-κB luciferase reporter, CD40-crosslinked, Fold change in Emax [3] [fold]	4-1BB/NF-κB luciferase reporter, FAP-crosslinked, Fold change in Emax [3] [fold]	4-1BB/NF-κB luciferase reporter, uncrosslinked, Fold change in Emax [3] [fold]	Maximum fluorescence value [4]	CD40/NF-κB reporter (HEK-Blue CD40L), 4-1BB-crosslinked, Fold change in Emax [5] [fold]	CD40/NF-κB reporter (HEK-Blue CD40L), FAP-crosslinked, Fold change in Emax [5] [fold]	CD40/NF-κB reporter (HEK-Blue CD40L), uncrosslinked, Fold change in Emax [5] [fold]	Maximum fluorescence value [6]	EC50 [7] [nM]	Maximum fluorescence value [7]	4-1BB/NF-κB luciferase reporter, CD40-crosslinked, Fold change in Emax [8] [fold]	4-1BB/NF-κB luciferase reporter, FAP-crosslinked, Fold change in Emax [8] [fold]	4-1BB/NF-κB luciferase reporter, uncrosslinked, Fold change in Emax [8] [fold]	EC50 [9] [nM]	Maximum fluorescence value [9]	Maximum fluorescence value [10]	further results
BNT312 (CD40/4-1BB bispecific antibody molecule, control) (bispecific antibody, human IgG1, kappa) heavy 1: EVQLVQSGAEVKKPGASVKVSCKTSGYTFTEYIMHWVRQAPGQGLEWMGGIIPNNGGTSYNQKFQGRVTMTVDKSTSTGYMELSSLRSEDTAVYYCTRREVYGRNYYALDYWGQGTLVTVSSASTKGPSVFPLAPSSKSTSGGTAALGCLVKDYFPEPVTVSWNSGALTSGVHTFPAVLQSSGLYSLSSVVTVPSSSLGTQTYICNVNHKPSNTKVDKRVEPKSCDKTHTCPPCPAPEFEGGPSVFLFPPKPKDTLMISRTPEVTCVVVAVSHEDPEVKFNWYVDGVEVHNAKTKPREEQYNSTYRVVSVLTVLHQDWLNGKEYKCKVSNKALPAPIEKTISKAKGQPREPQVYTLPPSREEMTKNQVSLTCLVKGFYPSDIAVEWESNGQPENNYKTTPPVLDSDGSFLLYSKLTVDKSRWQQGNVFSCSVMHEALHNHYTQKSLSLSPGK light 1: not shown heavy 2: EVQLVESGGGLVQPGRSLRLSCTASGFSLNDYWMSWVRQAPGKGLEWVGYIDVGGSLYYAASVKGRFTISRDDSKSIAYLQMNSLKTEDTAVYYCARGGLTYGFDLWGQGTLVTVSSASTKGPSVFPLAPSSKSTSGGTAALGCLVKDYFPEPVTVSWNSGALTSGVHTFPAVLQSSGLYSLSSVVTVPSSSLGTQTYICNVNHKPSNTKVDKRVEPKSCDKTHTCPPCPAPEFEGGPSVFLFPPKPKDTLMISRTPEVTCVVVAVSHEDPEVKFNWYVDGVEVHNAKTKPREEQYNSTYRVVSVLTVLHQDWLNGKEYKCKVSNKALPAPIEKTISKAKGQPREPQVYTLPPSREEMTKNQVSLTCLVKGFYPSDIAVEWESNGQPENNYKTTPPVLDSDGSFFLYSRLTVDKSRWQQGNVFSCSVMHEALHNHYTQKSLSLSPGK light 2: DIVMTQSPSSLSASVGDRVTITCQASEDISSYLAWYQQKPGKAPKRLIYGASDLASGVPSRFSASGSGTDYTFTISSLQPEDIATYYCHYYATISGLGVAFGGGTKVEIKRTVAAPSVFIFPPSDEQLKSGTASVVCLLNNFYPREAKVQWKVDNALQSGNSQESVTEQDSKDSTYSLSSTLTLSKADYEKHKVYACEVTHQGLSSPVTKSFNRGEC	9.51	6.27	7.66	449	4.76	1.19	1.09	77	5.97	5.41	5.06	25700	6.78	108000	3.56	1.01	1.1	2.77	109000	29300	CD40/NF-κB reporter (HEK-Blue CD40L), 4-1BB-crosslinked, EC50 [1]: 0.69 nM; 4-1BB/NF-κB luciferase reporter, CD40-crosslinked, EC50 [3]: 1.65 nM; 4-1BB/NF-κB luciferase reporter, FAP-crosslinked, EC50 [3]: 0.293 nM; CD40/NF-κB reporter (HEK-Blue CD40L), 4-1BB-crosslinked, EC50 [5]: 1.03 nM; EC50 [6]: 2.17 nM; 4-1BB/NF-κB luciferase reporter, CD40-crosslinked, EC50 [8]: 0.41 nM; EC50 [10]: 0.77 nM
humanized anti-4-1BB nanobody C5_V2 linked to human IgG1-Fc (Fc fusion) QVQLVESGGGLVQPGGSLRLSCSASGFTFSSYAMSWVRQAPGKGLEWVSDINSGGESTFYEDSVKGRFTISRDNAKNTLYLQMNSLRAEDTAVYYCAKHPLTFTIATMNDYDYWGQGTLVTVSSEPKSADKTHTCPPCPAPELLGGPSVFLFPPKPKDTLMISRTPEVTCVVVDVEHEDPEVKFNWYVDGVEVHNAKTKPREEQYNSTYRVVSVLTVLHQDWLNGKEYKCKVSSKAFPAPIEKTISKAKGQPREPQVYTLPPSRDELTKNQVSLTCLVKGFYPSDIAVEWESNGQPENNYKTTPPVLDSDGSFFLYSKLTVDKSRWQQGNVFSCSVMHEALHNHYTQKSLSLSPGK	–	–	–	–	–	–	–	–	–	–	–	–	–	–	–	–	–	–	–	–	EC50 [11]: 0.98 nM; Maximum fluorescence value [11]: 53700; EC50 [12]: 0.98 nM; Activation of HEK293-4-1BB cells (NF-κB reporter), Fold change in Emax [13]: 1.37 fold; FcγRIIb-mediated activation of HEK293-4-1BB cells (NF-κB reporter), Fold change in Emax [13]: 2.02 fold; EC50 [14]: 1.62 nM; Maximum fluorescence value [14]: 1030
C5_V2-YTI (TCE-optimized C5_V2, F99Y Kabat) linked to human IgG1-Fc (Fc fusion) QVQLVESGGGLVQPGGSLRLSCSASGFTFSSYAMSWVRQAPGKGLEWVSDINSGGESTFYEDSVKGRFTISRDNAKNTLYLQMNSLRAEDTAVYYCAKHPLTYTIATMNDYDYWGQGTLVTVSSEPKSADKTHTCPPCPAPELLGGPSVFLFPPKPKDTLMISRTPEVTCVVVDVEHEDPEVKFNWYVDGVEVHNAKTKPREEQYNSTYRVVSVLTVLHQDWLNGKEYKCKVSSKAFPAPIEKTISKAKGQPREPQVYTLPPSRDELTKNQVSLTCLVKGFYPSDIAVEWESNGQPENNYKTTPPVLDSDGSFFLYSKLTVDKSRWQQGNVFSCSVMHEALHNHYTQKSLSLSPGK	–	–	–	–	–	–	–	–	–	–	–	–	–	–	–	–	–	–	–	–	EC50 [11]: 0.62 nM; Maximum fluorescence value [11]: 53800; EC50 [12]: 0.62 nM
Ab10-A12V2-2 (FAP/CD40 bispecific antibody molecule, control) (bispecific antibody, human IgG1, kappa, L234A L235A) heavy: not shown light: DIQMTQSPSSVSASVGDRVTITCRASQGISSWLAWYQQKPGKAPKLLIYAASSLQSGVPSRFSGSGSGTDFTLTISSLQPEDFATYYCQQANSFPPAFGQGTKVEIKRTVAAPSVFIFPPSDEQLKSGTASVVCLLNNFYPREAKVQWKVDNALQSGNSQESVTEQDSKDSTYSLSSTLTLSKADYEKHKVYACEVTHQGLSSPVTKSFNRGEC	4.27	11.3	3.73	82700	1.1	1.05	1.06	77200	5	6.47	4.57	73	4.77	54000	1.07	1.01	1.1	6.85	55200	70	CD40/NF-κB reporter (HEK-Blue CD40L), FAP-crosslinked, EC50 [1]: 0.35 nM; EC50 [2]: 2.73 nM; EC50 [4]: 1.72 nM; CD40/NF-κB reporter (HEK-Blue CD40L), FAP-crosslinked, EC50 [5]: 0.23 nM; CD40/NF-κB reporter (HEK-Blue CD40L), 4-1BB-crosslinked, Fold change in Emax [15]: 8.42 fold; CD40/NF-κB reporter (HEK-Blue CD40L), FAP-crosslinked, EC50 [15]: 0.025 nM; CD40/NF-κB reporter (HEK-Blue CD40L), FAP-crosslinked, Fold change in Emax [15]: 11.9 fold; CD40/NF-κB reporter (HEK-Blue CD40L), uncrosslinked, Fold change in Emax [15]: 7.05 fold
